In publication doi:10.1101/2022.02.14.480375 one finds T1/2 of β-arrestin activation with albumin-bound S1P (1 μM S1P) data, which are given here for one substance.

The target in the test is S1PR1-SmBiT (S1P receptor-1 fused to the small fragment of split luciferase) (UniProt P21453). Nature of the test: split reporter.
Sequence of UniProt P21453 (P21453 whole entry, the tested form may be a part): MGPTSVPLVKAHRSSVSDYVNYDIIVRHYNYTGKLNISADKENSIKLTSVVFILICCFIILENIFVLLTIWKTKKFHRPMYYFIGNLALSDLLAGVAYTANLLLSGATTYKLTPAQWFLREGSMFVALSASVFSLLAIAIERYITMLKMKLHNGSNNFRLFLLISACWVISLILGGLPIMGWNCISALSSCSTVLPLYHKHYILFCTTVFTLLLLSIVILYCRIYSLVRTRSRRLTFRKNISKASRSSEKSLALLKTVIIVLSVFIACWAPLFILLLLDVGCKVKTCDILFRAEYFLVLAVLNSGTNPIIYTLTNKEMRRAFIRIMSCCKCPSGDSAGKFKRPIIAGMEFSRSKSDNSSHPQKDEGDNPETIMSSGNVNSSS

For “LgBiT-beta-arrestin fusion protein (from UniProt P49407 1-418) (natural protein)”, the T1/2 of β-arrestin activation with albumin-bound S1P (1 μM S1P) stood at 16 min.
